In the supplement of paper PMC12764529:
± gives the half width of the 95% confidence interval.

How the values were obtained:
[1] = folding stability dG unfold from chymotrypsin proteolysis; higher = more stable
Procedure, shortened: (§1)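 Designed mini-proteins (under 80 residues, no cysteine) in a PA-tagged cDNA display construct were digested with trypsin and chymotrypsin. Each protease was used at 11 concentrations (threefold dilutions) plus a no-protease condition, followed by sequencing. K50 was inferred by Bayesian fitting of sequencing counts, and unfolding free energy was derived against a sequence-predicted unfolded-state K50 and a shared folded-state K50, per protease or combined. Only designs with AlphaFold2 dimer inter-PAE above 15 were kept.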

[2] = folding stability dG unfold from trypsin proteolysis; higher = more stable
Procedure, shortened: as §1

[3] = folding stability dG unfold (combined trypsin and chymotrypsin); higher = more stable
Procedure, shortened: as §1

Sequence | folding stability dG unfold [1] [kcal/mol] | folding stability dG unfold [2] [kcal/mol] | folding stability dG unfold [3] [kcal/mol]
SANGEMTMMFEFEIFFPGLGYRGKIYVMMRIEPTPNQIRIDLMIMIEIEPIPPPPPKVPPEQNPEDADDSAG [r14_435_TrROS] | 5.18 ± 0.2 | 3.82 ± 0.21 | 5.23 ± 0.48
SANGKEYTFTIEIRVRDPENGQPWTIRITVPIWYDPDDGKLDIDIDVTPTPGMPKEWAERIAKEIIEAISAG [r14_152_TrROS] | 3.95 ± 0.048 | 3.04 ± 0.11 | 3.6 ± 0.076
SAPAVLLEEPDTLVEVEKLPDGSLLIRRVTKFPDGSVTVEISVIYPGGSLSVLESVTLNVPPEEPLPLLSAG [r14_42_JUSTAS] | 1.46 ± 0.051 | 2.42 ± 0.054 | 1.91 ± 0.073
SAPDPEQRKKNREQQEKNERMIPIQIHVYDKDGKWKPIGPVWFKDPDVPIDDLVPTFHDEGFDYVSISISAG [r14_318_TrROS] | 0.209 ± 0.23 | 0.153 ± 0.15 | 0.299 ± 0.21
SAPDWVKIKFPFRFYNPDPDGKPMAKMKLEIEVYPSPGAYMAKIEDPNFGMKITFPFDSPEEVKDFLQNSAG [r14_508_TrROS] | 1.14 ± 0.25 | 1.25 ± 0.083 | 1.23 ± 0.32
SAPEVEVFPGKDNSALVRVVFEFDGYRIEVVRRVPVEALKAGIPLEELPDVEILEVRVVKLPKPRPDELSAG [r14_856_TrMRF] | 2.85 ± 0.029 | 2.17 ± 0.056 | 2.58 ± 0.061
SAPEVFRFTIPRYRDDYEFDGDGYPVLKERKPVAPLEVEAVVFEDGTVRVRVGDEVREFPLGVSPEELFSAG [r14_909_TrMRF] | 0.355 ± 0.18 | 0.601 ± 0.22 | 0.566 ± 0.1
SAPFTATETVVTEEEDPATGLTRIPVEMTVDDHPVTGEGVRDPADPSRVSFSITFPDSDLTLTGEEPLPSAG [r14_178_JUSTAS] | -0.0428 ± 0.11 | 0.491 ± 0.036 | 0.312 ± 0.048
SAPGLRTYTIYDPSGVRRTFPPSWDVTILEYDPKTGTVTLKITKHNTDPGAPVSTETEKRKATFLRDVESAG [r14_927_JUSTAS] | 0.824 ± 0.12 | 0.575 ± 0.09 | 0.725 ± 0.061
SAPIDIDLERDPEPGRLKATVEFPWPNGWMHRMTFDLQWPRIKVEHYPFKDGEPEPQEIEIPIPANAKVSAG [r14_64_TrROS] | 0.426 ± 0.24 | 0.0882 ± 0.17 | 0.338 ± 0.19
SAPIKIEIDVHQPPPGDYMIMVRIRPPGDGKEFPRMFPFPPDDAEKILENLLSQFPGYEIDDIEPMRYPSAG [r14_969_TrROS] | 1.08 ± 0.15 | 1.26 ± 0.049 | 1.29 ± 0.16
SAPKRYYIKIEIYDNGKKQEITIPIGATIKNPGGKEYTYPVDSPEDLEEALNDLFPPGFPIKIDDVHPPSAG [r14_41_TrROS] | 1.21 ± 0.17 | 0.517 ± 0.042 | 0.973 ± 0.11
SAPMKIVKKTDNTLYIYDKKTKKIVKITINDGTITVEEITYDKKTKEKKVETKTIKLSEEQLKKLKKLLSAG [r14_245_TrROS_Hall] | 0.7 ± 0.24 | 1.54 ± 0.079 | 1.23 ± 0.14
SAPNIEIDYNKDNGMITIRLPGTGVEYMIPMPDGQLMAIDIEVKPDPDGKRKISIEIYFPDGKEHEFEISAG [r14_675_TrROS] | 2.45 ± 0.17 | 2.19 ± 0.29 | 2.3 ± 0.39
SAPNYVLVIKIKSTNTPYYIPVPEDVEIVVKKNKNGEITAVVKVKDPETGEYFVITFSGDAKIDKIEPVPSA [r9_467_TrMRF] | 2.93 ± 0.082 | 2.21 ± 0.1 | 2.63 ± 0.19
SAPPETVEVEEVAEFELADGSKVTVAKVKLPNGETLVVVTVYNKDGEPVATFVVREGDPDALAEALKALSSA [r9_1069_TrROS_Hall] | 4.56 ± 0.095 | 3.9 ± 0.3 | 4.51 ± 0.13
SAPPNHRMVMYEIPIPPGMEIGDEIKLKIKVPGKEYPIKIDRIPNLPPGMRVRIMFNLDNGQFMIQILPSAG [r14_554_TrROS] | 2.69 ± 0.062 | 2.52 ± 0.1 | 2.77 ± 0.26
SAPPTVKINWERVRRNGKRYYMIRVEITHPNNGKEREHTFMYDDPEDFLDNLLKLPNIDRVEIEDIYPMSAG [r14_464_TrROS] | 1.8 ± 0.2 | 1.64 ± 0.27 | 2.12 ± 0.51
SAPWVYHVRIEYKGPDGEPVAEHTIMVKTPEALKEQIRKHFGLSPAQIKNIEVEPVIPAEEMNEMQEKGSAG [r14_852_TrROS] | 1.27 ± 0.12 | 0.204 ± 0.13 | 0.882 ± 0.094
SARILRVEFEPFPLTERARLRLEVEDEDNDFPYEVDIELEVLPDPSEVRLRLVVRRPDGSRRELELRLFSAG [r14_10_TrMRF] | 4.97 ± 0.091 | 3.56 ± 0.086 | 4.23 ± 0.091
SARVYRLPDGRLVRFEPVPPRPPVIVIPVDFRISPDDPETRRRLAEEIRRRLLEELGLPEDTPIFVDPSSAG [r14_453_TrMRF] | 4.45 ± 0.14 | 4.11 ± 0.18 | 4.16 ± 0.22

Sequence | folding stability dG unfold [1] [kcal/mol] | folding stability dG unfold [2] [kcal/mol] | folding stability dG unfold [3] [kcal/mol]
SASAAEEIERALLPLPNIPTAPLATFTLPDAPVEVVSYDPVTGRVLVRLTGTGALFVFDPETGEAELLPSAG [r14_359_TrMRF] | 2.62 ± 0.054 | 2.56 ± 0.16 | 2.7 ± 0.34
SASISVASPEEAEKIAKELKEKYGAKSVKIEPLPEPLVKVTIEFEVPLENGKTATRKIVLLFSSDGKEESAG [r14_420_TrMRF] | 2.715 ± 0.016 | 1.87 ± 0.044 | 2.44 ± 0.074
SASITIPVDELKDFAEHFPGFNVGVNPETGMFQIFFPENGWMINIDIEVDPDDPDTIEIDIEIYPMPPNSAG [r14_604_TrROS] | 2.96 ± 0.15 | 1.78 ± 0.13 | 2.57 ± 0.37
SASKGSSMITVELTVTVPPSVSIEEVKKQFEEEFPKDAEIKVEATPVTVPANGTPVTTIKVTVTITKKESAG [r14_633_JUSTAS] | 1.71 ± 0.11 | 1.27 ± 0.1 | 1.56 ± 0.13
SASKRFVFPVLGDEQTITVDVPEDYYVRITVFFPDGSEPILIPPNEKVTITVPRKDAFVVIEVFPKNEESAG [r14_882_TrMRF] | 2.35 ± 0.025 | 2.59 ± 0.077 | 2.48 ± 0.067
SASLEPVATTAVPLPDGTTATLTLYRDPATGRYTVRVTVTHPDGAAETRVLEVDSEEEALSRVVLSPGASAG [r14_749_JUSTAS] | 3.421 ± 0.018 | 2.38 ± 0.049 | 3.12 ± 0.075
SASLPPGQVRSLPVDVTIETPEGQPRFTEPATLEPPPRLVVDVALPLPPGEVTITIRLPGPGVTLTIERSAG [r14_280_JUSTAS] | 1.53 ± 0.16 | 0.562 ± 0.089 | 1.42 ± 0.37
SASLTLTITLPDGAKITSITVEEVDGELVLTEITVETTNENGEKTTVTRTIVLKLPPAPPAHPDDPALKSAG [r14_95_TrROS_Hall] | 2.63 ± 0.12 | 2.13 ± 0.13 | 2.45 ± 0.15
SASMTLTIPLPLKPGDRVVVEATHPLGYGFETEELPDGSVRLTLTVPTPDAPPATLHIRVYEPNTGKLASAG [r14_39_TrMRF] | 3.24 ± 0.056 | 2.28 ± 0.051 | 2.85 ± 0.1
SASMTYTVTVTVSVKNPDGTPIGTIPITRTMNLDEAKVIVEKEIKKTVDELFPGKPANVTVDTTVTPLPSAG [r14_570_JUSTAS] | 1.6 ± 0.42 | 0.482 ± 0.13 | 0.899 ± 0.27
SASPWIQKLAEEIADELAKENGWEEVKFTVTLPIRMPMYRYDPNGKKEPHDMWMWIKFEVTARVPPGDPSAG [r14_232_TrROS] | 2.01 ± 0.18 | 2.28 ± 0.061 | 2.14 ± 0.24
SASSMSLSFSVSLETDPEKGLLSTVTTTSTVTPYPDSVVTTTTVTTTVTPVPPGPPVVSPSATPVVALSSAG [r14_435_JUSTAS] | 0.593 ± 0.098 | 1.47 ± 0.04 | 1.13 ± 0.051
SASSSSSSYNVTIDPATGTVTVTNPDGSTTTVPPGSTLTVTSTSSDGGSALGSSTPSTSTTTIPVPAGTSAG [r14_366_JUSTAS] | 0.699 ± 0.091 | 1.05 ± 0.05 | 0.919 ± 0.071
SATAVVIKAEVIFPNNEKKEISVVIENLTEEEVEELAEELEKKIKEEAGIPDIEVKIKVETFAKDDPAFSAG [r14_207_TrMRF] | 1.01 ± 0.09 | 0.438 ± 0.16 | 1.04 ± 0.3
SATFTLPDGREVEVVSVEYDPETNTVTVLVRDRETGELYVFTFERLPDGEWRIVSRERVRVEPGETVLVSAG [r14_13_TrROS_Hall] | 3.235 ± 0.022 | 2.02 ± 0.025 | 2.94 ± 0.07
SATGKLAELLEEAFPDRPIASAEILGVEPLPDGRPALRFLLTFEDGSKLVVTVTSADHPEVLEAARENQSAG [r14_143_TrMRF] | 2.913 ± 0.014 | 3.04 ± 0.064 | 2.96 ± 0.041
SAVVSVDPATGVVTAKVKVDDTELTVTITRDPATGAWPVTFTPPGSGTPVVLDVPFTSVEEAIELAKRLSAG [r14_803_JUSTAS] | 1.56 ± 0.036 | 1.54 ± 0.02 | 1.59 ± 0.05
SAWKIEIKEVKRNPDGWYEITITIPFPGDPNMPVDELADEILQEFGIKDVTVEPNPDNGWIEITIRIPRSAG [r14_228_TrROS] | 2.53 ± 0.057 | 2.45 ± 0.067 | 2.48 ± 0.19
SAWVIPFEVRLPGSPEQARRQVEEWADNIANRYQQNGFRVVDIKIDEIEPDNVRVRLTIQIVPPGQEIPSAG [r14_973_TrROS] | 2.52 ± 0.054 | 2.74 ± 0.08 | 2.66 ± 0.14
SAYIQIERDPDGYIKIEVWFDSPDEGKEFVKEFVKELADQGLDIKIKVTKIEPYPGDPNMYRVSYTIKVSAG [r14_119_TrROS] | 3.857 ± 0.038 | 2.76 ± 0.098 | 3.52 ± 0.083
SAYLMFMIPIKNDEITIKIPVPPGYYVRIFVFFPDGMEPRTIPPDEKVKIKIPKPGAWIMIMVYPAEEMSAG [r14_882_TrROS] | 5 ± 0.16 | 3.38 ± 0.12 | 4.41 ± 0.14
